Laboratory results reported in paper PMC11912937 (The Journal of Cell Biology, 2025).

Key:
Settings in all cases: both partners purified
[1] = target: T1, FACT complex (SPT16/SSRP1), full length, untreated (human, UniProt Q9Y5B9 1-1047; Q08945 1-709, phosphorylated as purified from insect cells; residues not printed | phosphorylated as purified from insect cells; residues not given); assay: pull-down; amylose resin, MBP-CENP-C fusion proteins (fragments or full-length ^MBPCENP-C^EGFP) as baits, FACT or FACT constructs as preys; 3 µM each; 20 mM Hepes pH 6.8, 300 mM NaCl, 2.5% glycerol, 1 mM TCEP, 0.01% Tween; 4°C
T1 construct: SPT16, FACT subunit; SSRP1, FACT subunit; His tags are followed by a TEV site; cleavage is not described; also called FAcilitates Chromatin Transcription complex; full-length FACT; source: Tnao38 insect cells (baculovirus), purified (HisTrap, HiTrap Q, SEC)

[2] = target: T2, ^MBPCENP-C^EGFP (a full-length CENP-C construct) (human, UniProt Q03188 1-943); assay: as above
T2 construct: CENP-C; also called ^His-MBPCENP-C^EGFP; source: Tnao38 insect cells (baculovirus), purified (TALON, heparin, SEC); not shown: MBP, N-terminal, kept; EGFP, C-terminal, kept

[3] = target: T3, ^GSTCENP-OPQUR (CENP-OPQUR with CENP-U fused to an N-terminal GST) (human, UniProt Q9BU64 1-300; Q6IPU0 1-288; Q7L2Z9 1-268; Q71F23 1-418; Q13352 1-177); assay: pull-down; glutathione-agarose, CENP-OPQUR with GST on CENP-U as bait, FACT constructs as preys; 3 µM each; 20 mM Hepes pH 6.8, 300 mM NaCl, 2.5% glycerol, 1 mM TCEP, 0.01% Tween; 4°C
T3 construct: CENP-O; CENP-P; CENP-Q; CENP-U; CENP-R; also called GST-tagged CENP-OPQUR; not shown: GST, N-terminal, kept; copies: + + + +

[4] = target: T4, CCAN, 16-subunit constitutive centromere-associated network reconstituted with CENP-C^2–545 (human, UniProt Q03188 2-545; Q9H3R5 1-247; Q92674 1-756; Q9BS16 1-269; Q9NSP4 1-180; Q8N0S6 …); assay: pull-down; amylose resin, MBP-tagged FACT (untreated, dephosphorylated, kinase-treated or truncated) as bait, CCAN or CCAN subcomplexes as preys; 3 µM each; 20 mM Hepes pH 6.8, 300 mM NaCl, 2.5% glycerol, 1 mM TCEP, 0.01% Tween; 4°C; SDS-PAGE, Coomassie
T4 construct: CENP-H; CENP-I; CENP-K; CENP-M; CENP-L; CENP-N; CENP-O; CENP-P; CENP-Q; CENP-U; CENP-R; CENP-T; CENP-W; CENP-S; CENP-X; source: recombinant subcomplexes expressed and purified as previously reported, mixed to reconstitute CCAN; copies: + + + + + + + + + + + + + + +

T1 sequence (Q9Y5B9 whole entry, the tested form may be a part, one chain of several): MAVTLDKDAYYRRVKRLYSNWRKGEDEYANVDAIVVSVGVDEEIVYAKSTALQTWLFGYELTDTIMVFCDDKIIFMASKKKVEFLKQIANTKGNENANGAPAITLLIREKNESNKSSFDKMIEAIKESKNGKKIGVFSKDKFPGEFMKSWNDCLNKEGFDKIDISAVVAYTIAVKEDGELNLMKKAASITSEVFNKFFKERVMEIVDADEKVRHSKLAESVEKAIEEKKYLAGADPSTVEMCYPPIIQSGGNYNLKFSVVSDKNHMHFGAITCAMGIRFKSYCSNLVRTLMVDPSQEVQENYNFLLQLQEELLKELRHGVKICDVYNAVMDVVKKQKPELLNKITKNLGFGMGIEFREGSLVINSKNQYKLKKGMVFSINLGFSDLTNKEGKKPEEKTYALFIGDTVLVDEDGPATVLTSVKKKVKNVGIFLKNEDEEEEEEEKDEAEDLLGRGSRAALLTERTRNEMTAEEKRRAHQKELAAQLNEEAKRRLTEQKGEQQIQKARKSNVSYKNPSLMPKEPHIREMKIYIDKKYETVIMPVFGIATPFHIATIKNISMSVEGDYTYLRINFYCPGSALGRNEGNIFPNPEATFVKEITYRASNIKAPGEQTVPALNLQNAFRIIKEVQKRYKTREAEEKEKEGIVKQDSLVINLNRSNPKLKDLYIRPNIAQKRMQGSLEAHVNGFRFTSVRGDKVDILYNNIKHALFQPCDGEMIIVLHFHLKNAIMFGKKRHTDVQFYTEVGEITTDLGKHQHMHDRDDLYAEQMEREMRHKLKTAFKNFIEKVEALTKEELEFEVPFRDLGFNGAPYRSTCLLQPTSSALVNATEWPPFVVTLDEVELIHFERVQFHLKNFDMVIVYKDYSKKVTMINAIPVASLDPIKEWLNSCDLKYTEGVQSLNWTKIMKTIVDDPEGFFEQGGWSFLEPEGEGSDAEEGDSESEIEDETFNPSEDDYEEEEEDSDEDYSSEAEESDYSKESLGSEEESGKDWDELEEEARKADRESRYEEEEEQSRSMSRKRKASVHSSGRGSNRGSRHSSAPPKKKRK
T2 sequence (Q03188 whole entry): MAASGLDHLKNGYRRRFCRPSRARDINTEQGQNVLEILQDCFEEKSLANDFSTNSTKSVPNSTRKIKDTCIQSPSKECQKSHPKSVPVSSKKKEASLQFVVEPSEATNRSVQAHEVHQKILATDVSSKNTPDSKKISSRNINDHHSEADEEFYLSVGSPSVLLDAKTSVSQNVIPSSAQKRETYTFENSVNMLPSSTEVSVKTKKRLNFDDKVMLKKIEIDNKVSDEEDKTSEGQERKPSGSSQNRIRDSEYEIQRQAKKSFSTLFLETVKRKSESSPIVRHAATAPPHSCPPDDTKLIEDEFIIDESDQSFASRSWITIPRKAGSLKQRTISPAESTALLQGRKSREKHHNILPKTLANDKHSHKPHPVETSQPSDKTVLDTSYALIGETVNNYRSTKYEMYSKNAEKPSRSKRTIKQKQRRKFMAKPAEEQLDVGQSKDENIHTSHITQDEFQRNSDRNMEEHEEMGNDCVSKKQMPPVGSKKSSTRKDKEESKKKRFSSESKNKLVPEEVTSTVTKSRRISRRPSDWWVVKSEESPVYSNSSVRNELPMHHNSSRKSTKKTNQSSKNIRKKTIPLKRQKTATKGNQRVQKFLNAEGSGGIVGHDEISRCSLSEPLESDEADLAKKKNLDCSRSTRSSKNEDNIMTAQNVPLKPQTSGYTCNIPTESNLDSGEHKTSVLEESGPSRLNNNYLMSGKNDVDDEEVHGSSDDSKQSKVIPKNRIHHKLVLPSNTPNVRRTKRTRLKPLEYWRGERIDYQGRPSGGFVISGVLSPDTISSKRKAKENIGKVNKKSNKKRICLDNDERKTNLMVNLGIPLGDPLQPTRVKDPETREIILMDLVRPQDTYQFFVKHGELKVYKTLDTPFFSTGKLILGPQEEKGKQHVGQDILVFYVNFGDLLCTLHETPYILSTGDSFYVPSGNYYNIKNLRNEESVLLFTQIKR

B1: ^MBPCENP-C^721–759-His (domain or fragment, human, UniProt Q03188 721-759, looked up)
chain: KNRIHHKLVLPSNTPNVRRTKRTRLKPLEYWRGERIDYQ
notes: CENP-C, residues 721-759; not shown: MBP, N-terminal, kept
B1: binds [1].

B2: ^MBPCENP-C^546–600-His (domain or fragment, human, UniProt Q03188 546-600, looked up)
chain: VRNELPMHHNSSRKSTKKTNQSSKNIRKKTIPLKRQKTATKGNQRVQKFLNAEGS
notes: CENP-C, residues 546-600; not shown: MBP, N-terminal, kept
B2: binds [1].

B3: SPT16^Mid-AID (SPT16^644–988) (domain or fragment, human, UniProt Q9Y5B9 644-988, looked up)
chain: GIVKQDSLVINLNRSNPKLKDLYIRPNIAQKRMQGSLEAHVNGFRFTSVRGDKVDILYNNIKHALFQPCDGEMIIVLHFHLKNAIMFGKKRHTDVQFYTEVGEITTDLGKHQHMHDRDDLYAEQMEREMRHKLKTAFKNFIEKVEALTKEELEFEVPFRDLGFNGAPYRSTCLLQPTSSALVNATEWPPFVVTLDEVELIHFERVQFHLKNFDMVIVYKDYSKKVTMINAIPVASLDPIKEWLNSCDLKYTEGVQSLNWTKIMKTIVDDPEGFFEQGGWSFLEPEGEGSDAEEGDSESEIEDETFNPSEDDYEEEEEDSDEDYSSEAEESDYSKESLGSEEESGK
notes: SPT16, Mid domain and AID segment, residues 644-988; also called construct 3; source: Tnao38 insect cells (baculovirus), purified (HisTrap, HiTrap Q, SEC)
B3: binds [2].

B4: FACT^trunc (SPT16^508–988/SSRP1^1–514) (complex, human)
chain 1: SNVSYKNPSLMPKEPHIREMKIYIDKKYETVIMPVFGIATPFHIATIKNISMSVEGDYTYLRINFYCPGSALGRNEGNIFPNPEATFVKEITYRASNIKAPGEQTVPALNLQNAFRIIKEVQKRYKTREAEEKEKEGIVKQDSLVINLNRSNPKLKDLYIRPNIAQKRMQGSLEAHVNGFRFTSVRGDKVDILYNNIKHALFQPCDGEMIIVLHFHLKNAIMFGKKRHTDVQFYTEVGEITTDLGKHQHMHDRDDLYAEQMEREMRHKLKTAFKNFIEKVEALTKEELEFEVPFRDLGFNGAPYRSTCLLQPTSSALVNATEWPPFVVTLDEVELIHFERVQFHLKNFDMVIVYKDYSKKVTMINAIPVASLDPIKEWLNSCDLKYTEGVQSLNWTKIMKTIVDDPEGFFEQGGWSFLEPEGEGSDAEEGDSESEIEDETFNPSEDDYEEEEEDSDEDYSSEAEESDYSKESLGSEEESGK
chain 2: MAETLEFNDVYQEVKGSMNDGRLRLSRQGIIFKNSKTGKVDNIQAGELTEGIWRRVALGHGLKLLTKNGHVYKYDGFRESEFEKLSDFFKTHYRLELMEKDLCVKGWNWGTVKFGGQLLSFDIGDQPVFEIPLSNVSQCTTGKNEVTLEFHQNDDAEVSLMEVRFYVPPTQEDGVDPVEAFAQNVLSKADVIQATGDAICIFRELQCLTPRGRYDIRIYPTFLHLHGKTFDYKIPYTTVLRLFLLPHKDQRQMFFVISLDPPIKQGQTRYHFLILLFSKDEDISLTLNMNEEEVEKRFEGRLTKNMSGSLYEMVSRVMKALVNRKITVPGNFQGHSGAQCITCSYKASSGLLYPLERGFIYVHKPPVHIRFDEISFVNFARGTTTTRSFDFEIETKQGTQYTFSSIEREEYGKLFDFVNAKKLNIKNRGLKEGMNPSYDEYADSDEDQHDAYLERMKEEGKIREENANDSSDDSGEETDESFNPGEEEEDVAEEFDSNASASSSSNEGDSDRDE
notes: SPT16, residues 508-988; SSRP1, residues 1-514; also called construct 2; source: Tnao38 insect cells (baculovirus), purified (HisTrap, HiTrap Q, SEC)
B4: binds [3].

B5: ^MBPFACT^trunc (MBP-TEV-SPT16^508–988 + His-TEV-SSRP1^1–514) (complex, human)
chain 1: B4 chain 1
chain 2: B4 chain 2
notes: SPT16, residues 508-988; SSRP1, residues 1-514; also called construct 2 with an N-terminal MBP fusion on SPT16; source: Tnao38 insect cells (baculovirus), purified (HisTrap, HiTrap Q, SEC); not shown: MBP, N-terminal, kept
B5: binds [4].
